Test results published in PMC2821790.

Legend:
[1] = target: T1, 15N-G11,G20,G37-HMGA1(2/3) peptide (UniProt P17096 49-91); test: NMR
T1 chain: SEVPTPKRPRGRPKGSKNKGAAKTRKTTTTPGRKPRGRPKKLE

[2] = target: T2, HMGA1(2/3) peptide (AT-hooks DBD2 and DBD3) (UniProt P17096 49-91); test: EMSA
T2 chain: T1 chain

Sp1 = Sp1 (UniProt P08047 1-785); test: EMSA
Sp1, sequence (P08047 whole entry): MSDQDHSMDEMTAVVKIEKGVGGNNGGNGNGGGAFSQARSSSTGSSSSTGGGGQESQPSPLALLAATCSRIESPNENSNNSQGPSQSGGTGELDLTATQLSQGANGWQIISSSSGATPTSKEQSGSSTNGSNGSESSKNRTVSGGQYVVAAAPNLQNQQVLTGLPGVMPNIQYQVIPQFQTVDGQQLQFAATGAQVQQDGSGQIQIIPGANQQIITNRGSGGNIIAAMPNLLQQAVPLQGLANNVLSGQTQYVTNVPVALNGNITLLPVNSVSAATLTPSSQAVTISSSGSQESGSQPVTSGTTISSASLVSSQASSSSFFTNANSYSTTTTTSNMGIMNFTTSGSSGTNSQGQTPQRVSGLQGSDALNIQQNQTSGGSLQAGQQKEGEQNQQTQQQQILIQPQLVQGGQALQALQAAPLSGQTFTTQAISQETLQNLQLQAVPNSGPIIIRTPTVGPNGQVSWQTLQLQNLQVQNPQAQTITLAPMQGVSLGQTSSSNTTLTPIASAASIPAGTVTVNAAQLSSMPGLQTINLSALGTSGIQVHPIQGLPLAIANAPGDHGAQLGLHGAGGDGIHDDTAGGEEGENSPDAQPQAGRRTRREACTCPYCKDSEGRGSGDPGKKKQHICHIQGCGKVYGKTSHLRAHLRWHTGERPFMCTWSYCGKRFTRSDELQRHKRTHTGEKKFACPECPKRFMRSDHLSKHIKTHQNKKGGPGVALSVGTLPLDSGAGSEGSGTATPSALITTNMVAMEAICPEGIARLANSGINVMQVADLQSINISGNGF

B1: NOS2 Oct 16-bp DNA (NMR) (dsDNA)
DNA 1: AGTTATGCAAAATAGC
DNA 2: GCTATTTTGCATAACT
binding result [1]: binds

B2: NOS2 Oct EMSA probe (-65/-50) (dsDNA)
DNA 1: AGTTATGCAAAATAGC
DNA 2: GCTATTTTGCATAACT
binding result [2]: binds

B3: Sp1 consensus probe (dsDNA)
DNA 1: ATTCGATCGGGGCGGGGCGAGC
DNA 2: GCTCGCCCCGCCCCGATCGAAT
binding result (Sp1): binds
